T1: full length (FL) human gp130 over-expressed on HEK293/Stat3-luc/gp130-2X Sort cells (human, UniProt P40189 23-918)
T1 sequence: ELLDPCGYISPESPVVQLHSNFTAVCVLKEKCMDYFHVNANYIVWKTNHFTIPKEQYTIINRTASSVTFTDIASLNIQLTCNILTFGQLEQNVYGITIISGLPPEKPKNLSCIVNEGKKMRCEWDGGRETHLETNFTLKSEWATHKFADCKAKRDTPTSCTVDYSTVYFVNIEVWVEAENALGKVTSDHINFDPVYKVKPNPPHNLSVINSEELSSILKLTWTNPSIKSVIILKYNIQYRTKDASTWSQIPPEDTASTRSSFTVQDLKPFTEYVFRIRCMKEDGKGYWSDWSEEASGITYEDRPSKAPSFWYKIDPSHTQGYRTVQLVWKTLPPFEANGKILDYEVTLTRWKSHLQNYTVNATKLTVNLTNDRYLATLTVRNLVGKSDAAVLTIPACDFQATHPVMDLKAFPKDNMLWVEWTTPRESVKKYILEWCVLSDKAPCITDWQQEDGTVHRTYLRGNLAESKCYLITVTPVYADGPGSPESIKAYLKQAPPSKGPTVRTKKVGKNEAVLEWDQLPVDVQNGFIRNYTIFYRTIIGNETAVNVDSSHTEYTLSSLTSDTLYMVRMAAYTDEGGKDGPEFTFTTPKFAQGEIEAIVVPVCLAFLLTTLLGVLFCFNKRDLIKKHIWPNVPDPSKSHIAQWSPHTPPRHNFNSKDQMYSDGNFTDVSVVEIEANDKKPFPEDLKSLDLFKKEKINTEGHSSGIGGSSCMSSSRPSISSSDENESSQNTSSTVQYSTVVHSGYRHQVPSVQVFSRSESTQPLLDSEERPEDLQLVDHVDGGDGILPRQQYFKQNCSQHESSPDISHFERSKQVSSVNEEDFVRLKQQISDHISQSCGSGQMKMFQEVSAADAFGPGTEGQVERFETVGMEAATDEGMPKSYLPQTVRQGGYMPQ

T2: human gp130 expressed endogenously on IMR-32/Stat3-luc cells (human, UniProt P40189 23-918)
T2 construct: Endogenous gp130 of the human neuroblastoma line IMR-32
T2 sequence: T1 sequence

B1: MAb16636 (antibody, V domains shown)
VH: QLQLQESGPGLVKPSETLSLICTVSGGSISSNNYYWGWIRQPPGKGLEWIGNLYGSGSTYYNPSLKSRVTISVDTSKNQFSLKLSFVTAADTAVYHCARWDTNGGAFDIWGQGTMVTVSS
VL: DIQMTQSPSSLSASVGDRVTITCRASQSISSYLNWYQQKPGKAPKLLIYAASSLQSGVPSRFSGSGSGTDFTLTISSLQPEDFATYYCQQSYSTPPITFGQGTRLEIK
notes: hIgG4 isotype control used
B2: MAb16623 (antibody, V domains shown)
VH: EVQLVESGGGLVQPGGSLRLSCAASGLTFSSYEMNWVRQAPGKGLEWVSHISSAGSTKYYADSVKGRFTISRDNAKNSLFLQMNSLRAEDTAIYYCAGYNYAYYYFGVDVWGQGTTVTVSS
VL: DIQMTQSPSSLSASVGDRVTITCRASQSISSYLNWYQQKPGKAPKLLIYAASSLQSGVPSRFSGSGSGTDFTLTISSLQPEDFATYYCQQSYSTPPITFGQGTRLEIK
notes: hIgG4 isotype control used
B3: MAb16666 (antibody, V domains shown)
VH: EVQLVESGGGLVQSGGSLRLSCAASGFTFSRYEMNWVRQAPGKGLEWVAYISNTGTTRDYSDSVKGRFTISRDNAKNSLYLQMSSLRVEDTAVYYCVREKFSGTSDWFDPWGQGTLVTVSS
VL: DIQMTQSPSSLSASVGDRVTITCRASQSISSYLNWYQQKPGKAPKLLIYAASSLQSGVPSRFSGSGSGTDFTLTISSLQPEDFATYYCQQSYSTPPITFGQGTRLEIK
notes: hIgG4 isotype control used
B4: MAb16676 (antibody, V domains shown)
VH: QVQLVQSGAEVMKPGASVKVSCRASGYTFSSYDINWVRQAPGQGLEWMGWISTATGNTNYPQKVQGRVTMTTDTSTNTAYMELRSLRSDDTAVYYCTREGNSKGWLDPWGQGTLVTVSS
VL: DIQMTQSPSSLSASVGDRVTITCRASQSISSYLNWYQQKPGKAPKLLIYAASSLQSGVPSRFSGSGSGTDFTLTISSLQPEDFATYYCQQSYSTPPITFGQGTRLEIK
notes: hIgG4 isotype control used
B5: MAb16618 (antibody, V domains shown)
VH: QVQLQESGPGLVKPSETLSLTCTVSGGSISNYYWTWIRQPPGKGLEWIGHISNSGTTNYNPSLKSRVTISVDTSKNQFSLKLTSVTAADTAVYYCARLPLGIAAVDTDYYYYFGMDVWGQGTTVTVSS
VL: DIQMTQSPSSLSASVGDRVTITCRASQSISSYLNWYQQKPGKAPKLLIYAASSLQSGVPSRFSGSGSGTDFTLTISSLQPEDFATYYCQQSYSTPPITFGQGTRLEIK
notes: hIgG4 isotype control used
B6: MAb16614 (antibody, V domains shown)
VH: QVQLVESGGGVVQPGGSLRLSCAASGFTFSTYDIHWVRQAPGKGLEWVAVISFDGSNRNYGDSVKGRFTISRDNSDNTLFLEMNNLRFEDTAVYYCAKEGYGVDFQHWGQGTLVTVSS
VL: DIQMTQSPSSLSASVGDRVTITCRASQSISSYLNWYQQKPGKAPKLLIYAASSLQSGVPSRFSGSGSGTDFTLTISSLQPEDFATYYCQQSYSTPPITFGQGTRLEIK
notes: hIgG4 isotype control used
B7: MAb16683 (antibody, V domains shown)
VH: QVQLVESGGGLVKPGGSLRLSCAASGFTFSDYYMTWIRQTPGKGLDWVSYISSSGTNKYNADSVKGRFTISRDNAKNSLYLQMNSLRAEDTAVYYCVRDPPWGMDVWGQGTTVTVSS
VL: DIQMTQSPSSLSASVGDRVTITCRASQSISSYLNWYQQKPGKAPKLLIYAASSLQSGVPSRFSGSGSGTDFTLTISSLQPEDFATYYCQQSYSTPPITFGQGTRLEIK
notes: hIgG4 isotype control used
B8: MAb16682 (antibody, V domains shown)
VH: EVQLVESGGGLVQPGGSLRLSCAASGFTFSTYWMNWVRQAPGKGLEWVANIKEDGSEKYYVDSVKGRFTISRDNAKNSLYLQMNSLRAEDTAVYYCAREGFGVVTYIWGQGTMVTVSS
VL: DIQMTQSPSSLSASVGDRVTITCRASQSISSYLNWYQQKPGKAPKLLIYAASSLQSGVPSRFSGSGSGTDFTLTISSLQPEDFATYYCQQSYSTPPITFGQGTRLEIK
notes: hIgG4 isotype control used

Experiments:
[1] = molecular target: T1, full length (FL) human gp130 …; experiment: FACS, 10 nM Ab, HEK293/Stat3-luc/gp130-2X Sort cells
Description: (§1) In order to assess cell binding by anti-GP130 antibodies of the invention two cell lines were generated. One cell line generated was HEK293 cells stably over-expressing full length (FL) human gp130 (amino acids 1-918 of accession #P40189 with leucine at position 2 changed to valine, a natural variant) along with a luciferase reporter (Stat3-luciferase, Stat3-luc, SA Bioscience, #CLS-6028L). The cells were sorted twice using flow cytometry for high expression of gp130. It is known hereafter as HEK293/Stat3-luc/gp130-2 X Sort. IMR-32 cells (human Neuroblastoma, ATCC), were also evaluated for cell binding as these cells express gp130 endogenously and were used for bioassays. The cells used for binding were generated to stably express a luciferase reporter (Stat3-luciferase, Stat3-luc, SA Bioscience, #CLS-6028L), and are referred to hereafter as IMR-32/STAT3-Luc cells.
(§2) For the FACS analysis, 10 nM of the antibodies were used to stain 0.5×10⁶ cells/well of each cell type at 4° C. in PBS (without calcium and magnesium) containing 2% FBS for 30 minutes. IMR-32/STAT3-luc cells were incubated with 1 mg/mL mouse IgG for 30 minutes at 4° C. to block Fc receptors prior to adding the antibodies. To test whether the anti-gp130 antibody binding is specific for gp130 on the IMR-32 cells, antibodies were added to IMR-32/Stat3-luc cells with or without being pre-bound to 1000 nM of recombinant protein of the ecto-domain of human gp130 fused to myc-myc-his tag (hgp130.mmh) for 30 minutes at 25° C. […] Cells were fixed using BD CytoFix™ (Becton Dickinson, #554655) and analyzed on an IQue® (Intellicyt®) Flow Cytometer. Unstained and secondary antibody alone controls were also tested for all cell lines. The results were analyzed using ForeCyt® (IntelliCyt®) software to determine the geometric means of fluorescence for viable cells.

[2] = molecular target: T3, human GP130 delta D1-D3 with C-terminal myc-myc hexahistidine tag (human, UniProt P40189 329-619); experiment: Luminex, antigen captured on anti-myc beads
T3 construct: used as CHO supernatant; also called human GP130 delta D1-D3-MMH; GP130 Delta D1-D3 extracellular domain
T3 sequence (P40189 other isoform, or with tags, fused parts or gaps mutant limits assumed): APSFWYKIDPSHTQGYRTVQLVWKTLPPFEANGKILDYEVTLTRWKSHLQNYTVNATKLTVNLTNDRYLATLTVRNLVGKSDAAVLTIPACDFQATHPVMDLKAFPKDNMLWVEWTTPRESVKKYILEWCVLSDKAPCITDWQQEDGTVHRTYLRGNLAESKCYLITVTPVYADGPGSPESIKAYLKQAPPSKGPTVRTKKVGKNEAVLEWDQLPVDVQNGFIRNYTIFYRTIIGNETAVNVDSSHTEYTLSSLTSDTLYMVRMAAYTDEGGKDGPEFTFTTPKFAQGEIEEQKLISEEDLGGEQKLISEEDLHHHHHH
Description: (§3) Aliquots of microspheres with immobilized anti-myc monoclonal antibodies, prepared as described above, were added individually to 1 mL of the each of these protein supernatants and to 500 uL of purified GP130 protein. The microspheres were gently mixed, incubated for two hours at 25° C., washed twice with 1 mL of DBPS, centrifuged to remove the supernatant and finally resuspended in 1 mL of DPBS buffer. Forty eight μL of anti-myc IgG coupled microspheres from individual reactions with full length human GP130 and with each of the human GP130 domain proteins were withdrawn and mixed together in 3.6 mL of PBS+20 mg/mL BSA+0.05% sodium azide (blocking buffer).
(§4) From this mixed pool, 75 μL of microspheres were plated per well on a 96 well filter plate (Millipore, Cat. No: MSBVN1250) and mixed with 25 μL of individual anti-human GP130 monoclonal antibodies (0.5 or 5 μg/mL), incubated for two hours at 25° C. and then washed twice with 200 μL of DPBS with 0.05% Tween 20 (washing buffer). To detect and quantify the amounts of bound anti-GP130 antibody levels to individual microspheres, either 100 μL of 2.5 μg/mL R-Phycoerythrin conjugated goat F(ab′)2 anti-human kappa (Southern Biotech, Cat #2063-09) in blocking buffer, was added and incubated for 30 minutes at 25° C. After 30 minutes, the samples were washed twice with 200 μL of washing buffer and resuspended in 150 μL of wash buffer. The Median Fluorescence intensity (MFI) of the microspheres was measured in a Luminex Analyzer.

[3] = molecular target: T4, human GP130 full length extracellular domain with C-terminal myc-myc-hexahistidine tag (human, UniProt P40189 23-619); experiment: Luminex, antigen captured on anti-myc beads
T4 construct: Monomeric; also called human GP130-MMH; hGP130-mmH
Description: as §3, §4

[4] = molecular target: T5, human GP130 delta D1 with C-terminal myc-myc hexahistidine tag (human, UniProt P40189 124-619); experiment: Luminex, antigen captured on anti-myc beads
T5 construct: used as CHO supernatant; also called human GP130 delta D1-MMH; GP130 Delta D1 extracellular domain
T5 sequence (P40189 other isoform, or with tags, fused parts or gaps mutant limits assumed): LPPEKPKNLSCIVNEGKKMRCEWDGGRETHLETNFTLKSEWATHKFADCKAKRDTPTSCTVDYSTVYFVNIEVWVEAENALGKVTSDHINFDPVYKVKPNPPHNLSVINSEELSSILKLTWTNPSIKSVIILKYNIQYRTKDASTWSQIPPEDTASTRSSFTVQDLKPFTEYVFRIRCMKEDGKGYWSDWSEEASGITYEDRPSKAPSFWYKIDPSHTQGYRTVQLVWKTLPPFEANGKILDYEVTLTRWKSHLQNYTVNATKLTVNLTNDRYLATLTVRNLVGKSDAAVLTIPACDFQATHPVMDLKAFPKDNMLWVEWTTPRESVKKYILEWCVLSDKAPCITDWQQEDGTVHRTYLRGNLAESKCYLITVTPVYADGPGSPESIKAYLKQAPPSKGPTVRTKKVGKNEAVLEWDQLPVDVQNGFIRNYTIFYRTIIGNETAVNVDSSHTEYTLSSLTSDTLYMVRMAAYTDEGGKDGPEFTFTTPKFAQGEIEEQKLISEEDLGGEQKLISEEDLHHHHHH
Description: as §3, §4

[5] = molecular target: T2, human gp130 expressed endogenously on …; experiment: FACS, 10 nM Ab pre-bound to 1 uM hGP130.mmh, IMR-32/Stat3-luc cells
Description: as §1, §2

[6] = molecular target: T2, human gp130 expressed endogenously on …; experiment: cell-based or functional assay

| Binder | MFI - Normalized to Unstained Control [1] [ratio] | Luminex MFI signal [2] [MFI] | Luminex MFI signal [3] [MFI] | Luminex MFI signal [4] [MFI] | MFI - Normalized to Unstained Control [5] [ratio] | % inhibition; CNTF (20 pM) [6] [%] | % inhibition; LIF (20 pM) [6] [%] | % inhibition; OSM (100 pM) [6] [%] | IC50 [M]; CNTF (20 pM) [6] [M] | IC50 [M]; LIF (20 pM) [6] [M] | IC50 [M]; OSM (100 pM) [6] [M] |
| --- | --- | --- | --- | --- | --- | --- | --- | --- | --- | --- | --- |
| B1 | 92 | 1070 | 17600 | 4260 | 7 | 62 | 76 | 82 | > 1e-08 | > 1e-08 | > 1e-08 |
| B2 | 96 | 16000 | 17600 | 12600 | 7 | 22 |  |  | > 1e-07 |  |  |
| B3 | 159 | 319 | 16700 | 7280 | 8 | 95 |  |  | 7.1e-10 |  |  |
| B4 | 74 | 686 | 18100 | 364 | 8 |  |  |  |  |  |  |
| B5 | 105 | 19 | 19000 | 2630 | 8 | 33 | 40 | 52 | > 1e-07 | > 1e-07 | > 5e-08 |
| B6 | 94 | 56 | 18700 | 2900 | 6 |  |  |  |  |  |  |
| B7 | 75 | 20900 | 15200 | 12000 | 7 |  |  |  |  |  |  |
| B8 | 80 | 13 | 13800 | 1380 | 8 |  |  | 23 |  |  | > 1e-07 |
